The target of one test is T1, hRetromer (Homo sapiens, UniProt O75436+Q96QK1+Q9UBQ0).
T1 construct: GST (pGEX4T-2, thrombin site plus linker) (N, cleaved yes); made in house; host or cells: E. coli BL21 (DE3)
Description: Isothermal titration calorimetry (ITC) of binding to Retromer. As to conditions: ITC, 25 °C, 530 µM TBC1D13 titrated into 14 µM Retromer, mean of triplicate titrations. Here is the method:
All the bacteria constructs were expressed in BL21 (DE3) cells using the autoinduction method. In brief, cultures grown in complex medium were incubated at 37 °C for 4 h, followed by overnight growth at 20 °C before harvesting for purification. […] In all cases, the soluble fractions clarified by centrifugation were loaded onto pre-equilibrated glutathione sepharose (GE healthcare) for initial purification. For Retromer, an additional Talon® resin purification step was performed to ensure the correct stoichiometry. GST-tag removal was carried out co-column overnight by adding thrombin for Human Retromer and PreScission protease for TBC1D13. The GST-tag removed fraction was further purified by size-exclusion chromatography (SEC) using a Superdex 200 (16/600) column (GE Healthcare) equilibrated with buffer containing 50 mM Tris-HCl pH 7.5, 200 mM NaCl, 2 mM β-ME.
The effect of cyclic peptide was assessed by pre-mixing 140 µM RT-D1 into 14 µM Retromer before titrating with 1 mM of native DENND4C1189-1206 peptide. For the binding experiment between Retromer and TBC1D13, 530 µM of TBC1D13 was titrated into 14 µM Retromer. The effect of the cyclic peptide was tested using the same concentration of RT-D1 as described above. All ITC experiments consisted of an initial 0.4 μl (not used in data processing), followed by 12 serial injections of 3.22 μl each with 180 sec intervals. […]

Test [1] relates to GLUT1, LAT1, KIDINS220, ATP7A, CTR1 surface levels in HeLa cells. The test can be described thus: Surface biotinylation and streptavidin purification: cell surface protein levels. As to conditions: Hela cells transduced with GFP-RAB10 T23N; PAR+GFP = 100; mean of n = 3. The class given is cell-based, human. Here is the method:
For every kind of protein extraction, buffers were pre-chilled, and cells and samples placed on ice. For basic western blot (WB), cells were lysed in ~ pH 7.2 phosphate buffered saline (PBS) with 1% (v/v) Triton X-100 and protease inhibitors (Thermo Fisher, A32955). The protein concentration was determined with a bicinchoninic acid (BCA) assay kit (Thermo Fisher, 23225) and equal amounts were denaturised (LDS Sample buffer (Thermo Fisher, NP0008), 3% β-mercaptoethanol (Sigma-Aldrich, M6250), 10 min at 95 °C) and resolved by SDS-PAGE on NuPAGE 4–12% precast gels (Invitrogen, NP0336BOX). Protein samples were then transferred onto methanol-activated polyvinylidene fluoride (PVDF) membrane (Immobilon-FL membrane, pore size 0.45μm; Millipore, IPFL00010). The membrane was blocked, then sequentially labelled with primary and secondary antibodies. Fluorescence detected by scanning with a LI-COR Odyssey scanner and Image Studio analysis software (LI-COR Biosciences). Typically, we performed WB in where a single blot is simultaneously probed with antibodies against 2 proteins of interest (distinct antibody species), followed by visualisation with the corresponding secondary antibodies conjugated to distinct spectral dyes. All steps were carried out on ice to prevent surface protein internalisation. […] The protein concentration was determined by BCA. […]

B1: hTBC1D13TBC: recombinant full-length human TBC1D13, RAB35 GAP, expressed in bacteria (protein)
chain: MSSLHKSRIADFQDVLKEPSIALEKLRELSFSGIPCEGGLRCLCWKILLNYLPLERASWTSILAKQRELYAQFLREMIIQPGIAKANMGVSREDVTFEDHPLNPNPDSRWNTYFKDNEVLLQIDKDVRRLCPDISFFQRATDYPCLLILDPQNEFETLRKRVEQTTLKSQTVARNRSGVTNMSSPHKNSVPSSLNEYEVLPNGCEAHWEVVERILFIYAKLNPGIAYVQGMNEIVGPLYYTFATDPNSEWKEHAEADTFFCFTNLMAEIRDNFIKSLDDSQCGITYKMEKVYSTLKDKDVELYLKLQEQNIKPQFFAFRWLTLLLSQEFLLPDVIRIWDSLFADDNRFDFLLLVCCAMLMLIREQLLEGDFTVNMRLLQDYPITDVCQILQKAKELQDSK
modifications: left off: GST, end not stated, cleaved
notes: recombinant full-length human TBC1D13, RAB35 GAP, expressed in bacteria
For B1, the “-TΔS” value with hRetromer was determined as 1.0 ± 1.4 kcal/mol. In addition, the Kd with hRetromer (single-site binding model, read-out: Kd) is 6.3 ± 1.2 µM.

B2: GFP-RAB10T23N (protein, UniProt P61026 1-200, looked up, variant T23N)
Ras-related protein Rab-10: MAKKTYDLLFKLLLIGDSGVGKNCVLFRFSDDAFNTTFISTIGIDFKIKTVELQGKKIKLQIWDTAGQERFHTITTSYYRGAMGIMLVYDITNGKSFENISKWLRNIDEHANEDVERMLLGNKCDMDDKRVVPKGKGEQIAREHGIRFFETSAKANINIEKAFLTLAEDILRKTPVKEPNSENVDISSGGGVTGWKSKCC
modifications: GFP fusion
As for B2, the “CTR1 Surface (LAT1 normalized)” value in test [1] came to 77.05.

The values are drawn from PMC12311110 (Nature Communications, 2025).
